Molecular target: T1, biotin-labelled EZH2 protein (UniProt Q15910 1-746, limits assumed, biotin label (EZ-link NHS-PEO4-Biotinylation kit))
T1 construct: Probe in solution (1 ug/ml) on the KDM2B peptide microarray; also called NHS-PEO4-Biotinylation-labelled EZH2 protein; recombinant protein
Experiment: KDM2B peptide array probed with biotin-EZH2 1 ug/ml, SA-HRP/ECL;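 also: Background-corrected optical density of each spot on the membrane, given as percent of the brightest spot (100%), color developed for 5 minutes; 100% is the highest background-corrected spot optical density on the membrane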

T1 sequence (Q15910 whole entry): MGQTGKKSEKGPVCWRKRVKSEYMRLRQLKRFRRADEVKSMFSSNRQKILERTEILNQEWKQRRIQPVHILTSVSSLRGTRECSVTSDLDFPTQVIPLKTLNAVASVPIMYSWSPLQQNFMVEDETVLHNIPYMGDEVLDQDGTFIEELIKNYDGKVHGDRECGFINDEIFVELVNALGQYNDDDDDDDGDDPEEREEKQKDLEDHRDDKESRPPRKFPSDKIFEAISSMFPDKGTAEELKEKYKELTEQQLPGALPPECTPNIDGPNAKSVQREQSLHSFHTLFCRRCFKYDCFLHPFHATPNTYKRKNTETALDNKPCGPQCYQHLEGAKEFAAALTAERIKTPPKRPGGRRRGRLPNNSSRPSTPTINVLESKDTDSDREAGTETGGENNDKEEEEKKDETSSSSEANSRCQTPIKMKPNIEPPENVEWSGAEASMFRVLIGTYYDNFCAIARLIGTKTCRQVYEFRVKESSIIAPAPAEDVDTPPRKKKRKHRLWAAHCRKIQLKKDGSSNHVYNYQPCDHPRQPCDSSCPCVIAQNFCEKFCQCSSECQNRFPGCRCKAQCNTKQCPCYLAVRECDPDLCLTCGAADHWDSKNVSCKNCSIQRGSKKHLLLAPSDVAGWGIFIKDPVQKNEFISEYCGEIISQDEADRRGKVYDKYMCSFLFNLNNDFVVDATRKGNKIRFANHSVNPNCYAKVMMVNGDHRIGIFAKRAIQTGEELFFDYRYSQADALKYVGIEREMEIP

RRSDEHSKKVPPDGL [peptide 156] and ANENQQPIKSEPESE [peptide 194] are the same in “Intensity (%)” value: 0% for the first, 0% for the second.

Going from ARRRRTRCRKCEACL [peptide 122] to LPNKELSRELSKELN [peptide 189], the “Intensity (%)” value falls from 100% to 0%.

First: RTECGECHFCKDMKK [peptide 125]
Second: YEKPQELSGRKRASS [peptide 162]
The “Intensity (%)” value of the first is higher: 1.57% for the first, 0% for the second.

Compared with RRKRRLPNKELSREL [peptide 188], PPDGLLRRKSDDVHL [peptide 158] is lower in “Intensity (%)” value: 0.8% for the first, 0% for the second.

Compared with HEIQRTENSLANENQ [peptide 192], VCLVCGEAGKEDTVE [peptide 133] is higher in “Intensity (%)” value: 0.19% for the first, 12% for the second.

Going from LANKPLRRFKQEPED [peptide 177] to ECHFCKDMKKFGGPG [peptide 126], the “Intensity (%)” value rises from 0% to 6.05%.

Going from YVQREALRVPLIFRE [peptide 20] to FGGPGRMKQSCIMRQ [peptide 128], the “Intensity (%)” value falls from 1.28% to 0%.

Going from DNKEGQEPAKRRSEC [peptide 152] to CNEIIHPGCLKIKES [peptide 139], the “Intensity (%)” value falls from 97.8% to 85.1%.

LKPGKEDKLFRKKRR [peptide 172] and EEKLRSQLYQGDFVH [peptide 15] are the same in “Intensity (%)” value: 0% for the first, 0% for the second.

First: RMKQSCIMRQCIAPV [peptide 129]
Second: CERPHRFSKGLNGTP [peptide 199]
The “Intensity (%)” value of the first is higher: 9.37% for the first, 0.18% for the second.

First: EGVVNDELPNCWECP [peptide 142]
Second: FNLMLMECSICNEII [peptide 137]
The “Intensity (%)” value of the first is higher: 100% for the first, 0.24% for the second.

QKRGPGFKYASNLPG [peptide 147] and SKELNHEIQRTENSL [peptide 191] are the same in “Intensity (%)” value: 0% for the first, 0% for the second.

Going from KKVKMRRKRRLPNKE [peptide 187] to CWECPKCNHAGKTGK [peptide 144], the “Intensity (%)” value falls from 0.95% to 0%.

DFNYEYVQREALRVP [peptide 19] and DELPNCWECPKCNHA [peptide 143] are the same in “Intensity (%)” value: 0% for the first, 0% for the second.

First: SQLYQGDFVHAMEGK [peptide 16]
Second: RKKRRSWKNAEDRMA [peptide 174]
The “Intensity (%)” value of the first is higher: 1.87% for the first, 0.47% for the second.

Going from LSPWWRSSLTYFQQQ [peptide 169] to KIKESEGVVNDELPN [peptide 141], the “Intensity (%)” value rises from 0% to 10.8%.

PLGSSLSPWWRSSLT [peptide 168] and GPEEKKKVKMRRKRR [peptide 186] are the same in “Intensity (%)” value: 0% for the first, 0% for the second.

EDKLFRKKRRSWKNA [peptide 173] and GDFVHAMEGKDFNYE [peptide 17] are the same in “Intensity (%)” value: 0% for the first, 0% for the second.

Going from RSSLTYFQQQLKPGK [peptide 170] to GFKYASNLPGSLLKE [peptide 148], the “Intensity (%)” value falls from 2.26% to 0%.

YFQQQLKPGKEDKLF [peptide 171] and LRRFKQEPEDELPEA [peptide 178] are the same in “Intensity (%)” value: 0% for the first, 0% for the second.

First: QKMNRDNKEGQEPAK [peptide 151]
Second: GSSSHLSPRPPLGSS [peptide 166]
The “Intensity (%)” value of the first is higher: 100% for the first, 0.84% for the second.

TEGAEGPEEKKKVKM [peptide 185] and HPGCLKIKESEGVVN [peptide 140] are the same in “Intensity (%)” value: 0% for the first, 0% for the second.

Compared with MECSICNEIIHPGCL [peptide 138], EDRMALANKPLRRFK [peptide 176] is lower in “Intensity (%)” value: 26.8% for the first, 0% for the second.

First: HSKKVPPDGLLRRKS [peptide 157]
Second: EPESEGEEPKRPPGI [peptide 196]
The “Intensity (%)” value of the first is higher: 18.4% for the first, 1.04% for the second.

Going from QEPAKRRSECEEAPR [peptide 153] to CEACLRTECGECHFC [peptide 124], the “Intensity (%)” value falls from 41.6% to 0%.

First: LSPRPPLGSSLSPWW [peptide 167]
Second: LSRELSKELNHEIQR [peptide 190]
The “Intensity (%)” value of the first is lower: 0% for the first, 0.26% for the second.

Compared with QEPEDELPEAPPKTR [peptide 179], LRRKSDDVHLRKKRK [peptide 159] is lower in “Intensity (%)” value: 0.39% for the first, 0% for the second.

GEEPKRPPGICERPH [peptide 197] and RKKRKYEKPQELSGR [peptide 161] are the same in “Intensity (%)” value: 0% for the first, 0% for the second.

Going from TRCRKCEACLRTECG [peptide 123] to EEEGKFNLMLMECSI [peptide 136], the “Intensity (%)” value falls from 97.3% to 0%.

ELPEAPPKTRESDHS [peptide 180] and TENSLANENQQPIKS [peptide 193] are the same in “Intensity (%)” value: 0% for the first, 0% for the second.

First: CIAPVLPHTAVCLVC [peptide 131]
Second: SWKNAEDRMALANKP [peptide 175]
The “Intensity (%)” value of the first is higher: 100% for the first, 0% for the second.

Going from GEAGKEDTVEEEEGK [peptide 134] to LPHTAVCLVCGEAGK [peptide 132], the “Intensity (%)” value rises from 0% to 100%.

QPIKSEPESEGEEPK [peptide 195] was tested, and the “Intensity (%)” value was 2.29%.

Source: US20250197451A1 (CAPITAL MEDICAL UNIVERSITY SCHOOL OF STOMATOLOGY, published 2025)
